From paper PMC10146638 (Viruses, 2023)
No end group written: not given here.

Legend:
[1] = target: knob domain of the FAdV-4 Fiber2 protein (Fowl aviadenovirus 4, UniProt A0A1B1SKZ0); assay: Surface plasmon resonance assay (Biacore X100, CM5 chip); format: binding, fowl adenovirus serotype 4 (FAdV-4)
[2] = target: knob domain of the FAdV-4 Fiber2 protein (amino acids 279–479) (fowl adenovirus serotype 4 (FAdV-4)); assay: crystal structure
[3] = target: knob domain of the FAdV-4 Fiber2 protein (amino acids 279–479) (fowl adenovirus serotype 4 (FAdV-4)); assay: AUC
[4] = target: knob domain of the FAdV-4 Fiber2 protein (amino acids 279–479) (fowl adenovirus serotype 4 (FAdV-4)); assay: SEC; Superdex200 Increase 10/300 GL; protein eluted at 14.78 mL
[5] = target: knob domain of the FAdV-4 Fiber2 protein (amino acids 279–479) (fowl adenovirus serotype 4 (FAdV-4)); assay: SDS-PAGE without boiling
LMH cells = conditions: 0-200 μM, 24, 48 and 72 h incubation, vs untreated group
[6] = target: knob domain of the FAdV-4 Fiber2 protein (amino acids 279–479) (fowl adenovirus serotype 4 (FAdV-4)); assay: SPR

Molecule | Kd [1] | Kd [6] | further results
MQKHEW [Peptide P25, MQKHEW] | 1.37 µM |  | 
QWKIHR [Peptide P6, QWKIHR] | 2.78 µM |  | 
QWKNCK [Peptide P10, QWKNCK] | 1.02 µM |  | 
MQKKFI [Peptide P30, MQKKFI] | 0.907 µM |  | 
knob domain of the FAdV-4 Fiber2 protein (amino acids 279–479) (domain or fragment) |  |  | stoichiometry N [2]: 3; stoichiometry N [3]: 3; stoichiometry N [4]: 3; stoichiometry N [5]: 3
WWHEKE [Peptide P15, WWHEKE] |  |  | cytotoxic effect (CCK-8) (LMH cells): no cytotoxic effect
MQKHCG [Peptide P27, MQKHCG] | 0.572 µM |  | 
QWKIEK [Peptide P5, QWKIEK] | 1.2 µM |  | 
QWKARV [Peptide P14, QWKARV] | 24 µM |  | 
QWKKHI [Peptide P1, QWKKHI] | 6.16 µM |  | 
MQKHEW [peptide P25] |  | 1.37 µM | 
QWKKHI [peptide P1] |  | 6.16 µM | 
QWKARV [peptide P14] |  | 24 µM | 
QWKIEK [peptide P5] |  | 1.2 µM | 
QWKIHR [peptide P6] |  | 2.78 µM | 
QWKNCK [peptide P10] |  | 1.02 µM | 
MQKKFI [peptide P30] |  | 0.907 µM | 
MQKHCG [peptide P27] |  | 0.573 µM | 
WWHEKE [peptide number 15 (P15; WWHEKE)] |  | 1.44 µM | 
